Test results reported in article PMC7291142.

Test system: RSV Gag∆PR (Rous sarcoma virus (Prague C strain))
Experiment: FA salt titration

Row | Substance | Kd
1 | MΨ-A197C | 9.8 mM
2 | MΨ-G218C | 700 mM
3 | MΨ-WT | 0.23 mM
4 | MΨ-∆L3 | 31 mM
5 | MΨ-∆SL-B | 0.096 mM
